From the nanobody polyreactivity screen of Harvey et al. (2022)

Assay: yeast display, Sf9 membrane polyspecificity reagent, FACS + sequencing; frameworks hold sequencing errors
Procedure, shortened: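 Genes from sorted yeast were amplified by colony PCR, read by MiSeq 2 × 250 sequencing and filtered on CDR length. These cells carried a synthetic nanobody library in Saccharomyces cerevisiae BJ5465 and were sorted by FACS into low and high (top ~1%) gates on anti-HA and streptavidin fluorescence. Polyreactivity is labelled according to the gate of origin.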

Row | Sequence | polyreactivity (PSR sort gate)
1 | QVQLVESGGGLVQAGGSLRLSCAASGSTFSDNAMGWYRQAPGKERELVAGITGGGGTYYADSVKGRFTISRDNAKNTVYLQMNSLKPEDTAVYYCAADTWGTPTPFVHYPEFEHWGQGTQVTVSS | low polyreactivity
2 | QVQLVESGGGLVQAGGSLRLSCAASGSTFSDYAMGWYRQAPGKERELVAAISDSGSGTYYADSVKGRFTISRDNAKNTVYLQMNSLKPEDTAVYYCNTDPRFAMDWGQGTQVTVSS | low polyreactivity
3 | QVQLVESGGGLVQAGGSLRLSCAASGSTFSDYAMGWYRQAPGKERELVAAISGGGTTDYADSVKGRFTISRDNAKNTVYLQMNSLKPEDTAVYYCNKPVEGSFLPYSYLRFDYWGQGTQVTVSS | low polyreactivity
4 | QVQLVESGGGLVQAGGSLRLSCAASGSTFSDYAMGWYRQAPGKERELVAAISYSGGSTYYADSVKGRFTISRDNAKNTVYLQMNSLKPEDTAVYYCAAEYERYFGYDYWGQGTQVTVSS | low polyreactivity
5 | QVQLVESGGGLVQAGGSLRLSCAASGSTFSDYVMGWYRQAPGKERELVAAISWSGDRTYYADSVKGRFTISRDNAKNTVYLQMNSLKPEETAVYYCAAEYAPSEPSYYYGYDYWGQGTQVTVSS | high polyreactivity
6 | QVQLVESGGGLVQAGGSLRLSCAASGSTFSFYTMGWYRQAPGKERELVAAISQSGTSTYYADSVKGRFTISRDNAKNTVFLQMNSLKPEDTAVYYCATVRKFYFHTRWYYYEGGYWGQGTQVTVSS | high polyreactivity
7 | QVQLVESGGGLVQAGGSLRLSCAASGSTFSGNAMGWYRQAPGKERELVAAISSGGDTYYADSVKGRFTNSRDNAKNTVYLQMNSLKPEDTAVYYCNARSTWRHRRDQVDFDYWGQGTQVTVSS | low polyreactivity
8 | QVQLVESGGGLVQAGGSLRLSCAASGSTFSGNAMGWYRQAPGKERELVAAITSGGSTNYADSVKGRFTISRDNAKNTVYLDMNSLKPEDTAVYYCAKRYGYRRYYTASDYWGQGTQVTVSS | low polyreactivity
9 | QVQLVESGGGLVQAGGSLRLSCAASGSTFSGNAMGWYRQAPGKERELVAGIRQSGDSTYYADSVKGRFTISRDNAKNTVYLQMNSLKPEDTAVYDCNARAFPFGTGVQGFGFGYWGQGTQVTVSS | low polyreactivity
10 | QVQLVESGGGLVQAGGSLRLSCAASGSTFSGYTMGWYRQAPGKERELVASISSGVSTYYADSVKGRFTISRDNAKNTVYLQMNSLKPEDTAVYYCAADSVGDYGYQVYASWGYEDEYWGQGTQVTVSS | low polyreactivity
11 | QVQLVESGGGLVQAGGSLRLSCAASGSTFSHYAMGWYRQAPGKERELVAAISTSGGSTYYADSVKGRFTISRDNAKNTVYLQMNSLKPEDTAVYYCAAAVPRQGNYGGYEYWGQGSQVTVSS | high polyreactivity
12 | QVQLVESGGGLVQAGGSLRLSCAASGSTFSHYAMVWYRQAPGKERELVATITGTGVRTYYADSVKGRFTISRDNAKNTVYLQMNSLKPEDTAVSYCAVPPSKRGAQAQPWMDYWGQGTQVTVSS | low polyreactivity
13 | QVQLVESGGGLVQAGGSLRLSCAASGSTFSINAMGWYRQAPGKERELVAAISWRGSGTYYADSVKGRFTISRDNAKNTVYLQMNSLKPEDTAVYYCAAEWDRPLYYPWYVEYDYWGQGTQVTVSS | high polyreactivity
14 | QVQLVESGGGLVQAGGSLRLSCAASGSTFSIYAMGWYRQAPGKERELVAAISSSGGSTYYADSVKGRFTISRDNAKNTFYLQMNSLKPEDTAVYYCNKRKYHVRYDYWGQGTQVTVSS | low polyreactivity
15 | QVQLVESGGGLVQAGGSLRLSCAASGSTFSKKAMGWYRQAPGKERELVAAITGRGGNTYYADSVKGRFTLSRDNAKNTVYLQMNSLKPEDTAVYYCAASWATYWFYRKAYNYWGQGTQVTVSS | high polyreactivity
16 | QVQLVESGGGLVQAGGSLRLSCAASGSTFSKNAMGWYRQAPGKERELVASISSSGGSTYYADSVKGRFTISRDNAKNTVYLQMNSLKPEDTAVYYCNRRWYARGEYWGQGTQVTVSS | high polyreactivity

Row | Sequence | polyreactivity (PSR sort gate)
17 | QVQLVESGGGLVQAGGSLRLSCAASGSTFSKNTMGWYRQAPGKERELVAAITGTGDSTYYADSVKGRFTISRDNAKYPVYLQMNSLKPEDTAVYYCAADAYSLCYESWGQGTKVTVSS | low polyreactivity
18 | QVQLVESGGGLVQAGGSLRLSCAASGSTFSKYAMGWYRQAPGKERELVAAITWRASTYYADSVKGRFTISRDNAKNTVYLQMNSLKPEDTAVYYCAVRQSQRGGTSSNTSNDYWGQGTQVTVSS | high polyreactivity
19 | QVQLVESGGGLVQAGGSLRLSCAASGSTFSKYAMGWYRQAPGKERELVATISSTGSTNYADSVKGRFTISRDNAKNTVYLQMNSLKPEDTAVSYCNAGRRGRPYYKYYYWGQGTQVTVSS | high polyreactivity
20 | QVQLVESGGGLVQAGGSLRLSCAASGSTFSLYAMGWSRQAPGKERELVAAISRSGGRTYYADSVKGRFTISRDNAKNTVYLQMNSLKPEDTAVYYCAADSTSGYYWGQGTQVTVSS | high polyreactivity
21 | QVQLVESGGGLVQAGGSLRLSCAASGSTFSLYAMGWYRQAPGKERELVAAISQSGSRTYYADSVKGRFTISRDNAKNTVYLQMNSLKPEDTAVYYCAAYSPQTYLRWTYGYWGQGTQVTVSS | high polyreactivity
22 | QVQLVESGGGLVQAGGSLRLSCAASGSTFSLYAMGWYRQATGKERELVASIRGRGGSTNYADSVKGRFTISRDNAKNTVYLQMNSLKPEDTAVYYCAAAVGSVRYDYWGQGTQVTVSS | high polyreactivity
23 | QVQLVESGGGLVQAGGSLRLSCAASGSTFSLYDMGWYRQAPGKERELVAAISSSGGGTYYADSVKGRFTISRDNAKKTVYLQMNSLKPEDTAVYYCAARFYYYPTKYDSWGQGTQVTVSS | high polyreactivity
24 | QVQLVESGGGLVQAGGSLRLSCAASGSTFSLYTMGWYRQAPGKERELVAAITNGGSTKYADSVKGRFTISRDNAKNTVYLQMNSLKPEDTAVYYCAALYTHYYWIEYDYWGQGTQVTVSS | low polyreactivity
25 | QVQLVESGGGLVQAGGSLRLSCAASGSTFSNAMGWYREAPGKERELVAAITNRGGSTYYADSVKGRFTISRDNAKNTVYLQMNSLKPEDTAVYYCAAAGIPESWYQERDYWGQGTQVTVSS | low polyreactivity
26 | QVQLVESGGGLVQAGGSLRLSCAASGSTFSPYALGWYRQAPGKERELVAGITSSGGDTYYADSVKGRFTISRDNAKNTVYLQMNSLKPEDTAVYYCAADWWVLGQLWFDYWGQGTQVTVSS | low polyreactivity
27 | QVQLVESGGGLVQAGGSLRLSCAASGSTFSPYAMGWYIQAPGKERELVAAIRVRVGGNTYYADSVKGRFTISRDNAKNTVYLQMNSLKPEDTAVYYCAAYSRTLYPDRYYWGQGTQVTVSS | high polyreactivity
28 | QVQLVESGGGLVQAGGSLRLSCAASGSTFSPYAMGWYRQAPGKDRELVAAISYDGASTYYADSVKGRFTISRDNAKNTVYLQMISLKPEDTAVYYCAADYFRSYEGTYWVVASYYYWGQGTQVTVSS | low polyreactivity
29 | QVQLVESGGGLVQAGGSLRLSCAASGSTFSQYAMGWYRPAPGKERELVAAINYIGGSTYYADSVKGRFTISRDNAKNTVYLQMNSLKPEDTAVYYCAVQRWKSSVSFGYWGQGTQVTVSS | low polyreactivity
30 | QVQLVESGGGLVQAGGSLRLSCAASGSTFSQYAMGWYRQAPGKERELVAAITTSDGSTNYADSVKGRFTISRDNAKNTVYLQMNSLKPEDTAVYYCNTEYFYYSFGYWGQGTQVTVSS | low polyreactivity
31 | QVQLVESGGGLVQAGGSLRLSCAASGSTFSRNAMGWSRQAPGKERELVAAISYRGGSTYYADSVKGRFTISRDNAKNTVYLQMNSLKPEDTAVYYCNADVGWRAPDYGGYDYWGQGTQVTVSS | high polyreactivity
